Target: PD-1 on PD-1 reporter Jurkat cells (UniProt Q15116)
Assay: cell-based or functional assay

Chain of PD-1 on PD-1 reporter Jurkat cells (Q15116 25-288 limits assumed): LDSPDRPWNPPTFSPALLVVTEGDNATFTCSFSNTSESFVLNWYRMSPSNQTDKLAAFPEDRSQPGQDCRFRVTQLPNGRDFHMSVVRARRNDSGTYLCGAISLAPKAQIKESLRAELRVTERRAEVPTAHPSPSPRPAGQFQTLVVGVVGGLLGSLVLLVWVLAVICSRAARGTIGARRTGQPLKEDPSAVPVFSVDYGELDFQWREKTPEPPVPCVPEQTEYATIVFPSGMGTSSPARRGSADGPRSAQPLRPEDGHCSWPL

In the case of LY3462817 (antibody), the EC50 of SHP-2 recruitment, PD-1 reporter Jurkat cells, Ig-tethered test article on anti-human IgG coated plates is reported as 5.69 nM.

— patent US20240052034A1
